# Reference: US20250250357A1 (NANJING ZAIMING PHARMACEUTICAL, published 2025)
# Residue numbers refer to the chain shown, from its start.
# B1: F7.44.20-H13 (scFv, not shown: small tags and cut ends)
# scFv: EVQLVQSGAEVKKPGASVKVSCKASGYTFTDYNMDWVRQAPGQGLEWMGDINPSTGGTIYNQKFSGRVTMTEDKSASTVYMELSSLRSEDTAVYYCARRRIGTGYFDVWGQGTTVTVSSGGGGSGGGGSGGGGSEIVLTQSPDFQSVTPKEKVTITCSASSSVISSYLSWYQQKPDQSPKLLIYRTSNLASGVPSRFSGSGSGTDFTLTINSLEAEDAATYYCHQWSSFPYTFGGGTKVEIK
# notes: also called S009-F7.44.20 humanized antibody VH2a + VL1
# B2: F7.44.20-H3 (scFv, not shown: small tags and cut ends)
# scFv: EVQLVQSGAEVKKPGASVKVSCKASGYTFTDYNMDWVRQAPGQGLEWMGDINPSTGGTIYNQKFNGRVTMTEDKSTSTVYMELSSLRSEDTAVYYCARRRIGTGYFDVWGQGTTVTVSSGGGGSGGGGSGGGGSEIVLTQSPATLSLSPGERATLSCSASSSVISSYLSWYQQKPGQSPRLLIYRTSNLASGIPARFSGSGSGTDYTLTISSLEPEDFAVYYCHQWSSFPYTFGGGTKVEIK
# notes: also called S009-F7.44.20 humanized antibody VH1 + VL3
# B3: F7.44.20-H11 (scFv, not shown: small tags and cut ends)
# scFv: B2 scFv with T76A
# notes: also called S009-F7.44.20 humanized antibody VH2 + VL3
# B4: F7.44.20-H15 (scFv, not shown: small tags and cut ends)
# scFv: B2 scFv with N65S, T76A
# notes: also called S009-F7.44.20 humanized antibody VH2a + VL3
# B5: F7.44.20-H8 (scFv, not shown: small tags and cut ends)
# scFv: B2 scFv with N65Q, Q177S
# notes: also called S009-F7.44.20 humanized antibody VH1a + VL4
# B6: F7.44.20-H12 (scFv, not shown: small tags and cut ends)
# scFv: B2 scFv with T76A, Q177S
# notes: also called S009-F7.44.20 humanized antibody VH2 + VL4
# B7: F7.44.20-H7 (scFv, not shown: small tags and cut ends)
# scFv: B2 scFv with N65Q
# notes: also called S009-F7.44.20 humanized antibody VH1a + VL3
# B8: F7.44.20-H4 (scFv, not shown: small tags and cut ends)
# scFv: B2 scFv with Q177S
# notes: also called S009-F7.44.20 humanized antibody VH1 + VL4
# Target: T1, human MSLN-R3 protein (human, UniProt Q13421 487-598)
# T1 construct: also called hMSLN-R3
# T1 sequence (Q13421 495-606, form in doubt): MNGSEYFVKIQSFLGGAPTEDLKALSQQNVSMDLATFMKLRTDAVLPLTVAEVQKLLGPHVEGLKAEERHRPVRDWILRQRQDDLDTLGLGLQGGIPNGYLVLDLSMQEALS
# Assay: ELISA on coated antigen, antibody 0.001 nM
row,Binder,OD450
1,B1,0.05 OD450
2,B2,0.04 OD450
3,B3,0.04 OD450
4,B4,0.04 OD450
5,B5,0.04 OD450
6,B6,0.05 OD450
7,B7,0.04 OD450
8,B8,0.04 OD450

# Target: T2, human MSLN-hFc protein (Acro, Cat. No. MSN-H5253) (human, UniProt Q13421 296-580)
# T2 construct: the method names the coated protein as human MSLN-hFc (Acro); also called human MSLN full-length protein
# T2 sequence (Q13421 other isoform, or with tags, fused parts or gaps limits assumed): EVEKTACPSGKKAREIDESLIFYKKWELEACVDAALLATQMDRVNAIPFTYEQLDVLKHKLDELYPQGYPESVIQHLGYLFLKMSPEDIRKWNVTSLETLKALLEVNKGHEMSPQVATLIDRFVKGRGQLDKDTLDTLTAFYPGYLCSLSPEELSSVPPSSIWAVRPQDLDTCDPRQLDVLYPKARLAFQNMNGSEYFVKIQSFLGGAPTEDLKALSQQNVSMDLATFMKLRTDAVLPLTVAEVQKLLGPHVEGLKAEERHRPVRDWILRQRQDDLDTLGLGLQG
# Assay: ELISA on coated antigen, antibody 0.001 nM
row,Binder,OD450
1,B1,0.06 OD450
2,B2,0.04 OD450
3,B3,0.05 OD450
4,B4,0.05 OD450
5,B5,0.04 OD450
6,B6,0.05 OD450
7,B7,0.04 OD450
8,B8,0.04 OD450

# Target: T2, human MSLN-hFc protein (Acro, Cat. No. …)
# Assay: ELISA on coated antigen, antibody 0.01 nM
row,Binder,OD450
1,B1,0.06 OD450
2,B2,0.06 OD450
3,B3,0.06 OD450
4,B4,0.06 OD450
5,B5,0.05 OD450
6,B6,0.06 OD450
7,B7,0.06 OD450
8,B8,0.06 OD450

# Target: T2, human MSLN-hFc protein (Acro, Cat. No. …)
# Assay: ELISA on coated antigen, antibody 1 nM
row,Binder,OD450
1,B1,0.98 OD450
2,B2,1.22 OD450
3,B3,1.69 OD450
4,B4,1.24 OD450
5,B5,1.13 OD450
6,B6,1.02 OD450
7,B7,1.74 OD450
8,B8,1.14 OD450

# Target: T2, human MSLN-hFc protein (Acro, Cat. No. …)
# Assay: ELISA on coated antigen, antibody 10 nM
row,Binder,OD450
1,B1,2.81 OD450
2,B2,2.74 OD450
3,B3,2.91 OD450
4,B4,2.78 OD450
5,B5,2.55 OD450
6,B6,2.92 OD450
7,B7,2.99 OD450
8,B8,2.99 OD450

# Target: T2, human MSLN-hFc protein (Acro, Cat. No. …)
# Assay: ELISA on coated antigen, antibody 0.0001 nM
row,Binder,OD450
1,B1,0.06 OD450
2,B2,0.04 OD450
3,B3,0.05 OD450
4,B4,0.05 OD450
5,B5,0.05 OD450
6,B6,0.05 OD450
7,B7,0.04 OD450
8,B8,0.05 OD450

# Target: T1, human MSLN-R3 protein
# Assay: ELISA on coated antigen, antibody 0.1 nM
row,Binder,OD450
1,B1,0.08 OD450
2,B2,0.1 OD450
3,B3,0.16 OD450
4,B4,0.11 OD450
5,B5,0.09 OD450
6,B6,0.09 OD450
7,B7,0.16 OD450
8,B8,0.1 OD450

# Target: T2, human MSLN-hFc protein (Acro, Cat. No. …)
# Assay: ELISA on coated antigen, antibody 100 nM
row,Binder,OD450
1,B1,3.12 OD450
2,B2,2.96 OD450
3,B3,3.28 OD450
4,B4,3.26 OD450
5,B5,3.09 OD450
6,B6,3.17 OD450
7,B7,3.05 OD450
8,B8,3.2 OD450

# Target: T1, human MSLN-R3 protein
# Assay: ELISA on coated antigen, antibody 100 nM
row,Binder,OD450
1,B1,1.94 OD450
2,B2,2.21 OD450
3,B3,2.43 OD450
4,B4,1.86 OD450
5,B5,2.15 OD450
6,B6,2.44 OD450
7,B7,2.1 OD450
8,B8,2.32 OD450

# Target: T1, human MSLN-R3 protein
# Assay: ELISA on coated antigen, antibody 10 nM
row,Binder,OD450
1,B1,1.57 OD450
2,B2,2.12 OD450
3,B3,2.41 OD450
4,B4,1.85 OD450
5,B5,2.07 OD450
6,B6,2.12 OD450
7,B7,2.23 OD450
8,B8,2.11 OD450

# Target: T2, human MSLN-hFc protein (Acro, Cat. No. …)
# Assay: ELISA on coated antigen, antibody 0.1 nM
row,Binder,OD450
1,B1,0.16 OD450
2,B2,0.15 OD450
3,B3,0.27 OD450
4,B4,0.19 OD450
5,B5,0.15 OD450
6,B6,0.16 OD450
7,B7,0.3 OD450
8,B8,0.19 OD450

# Target: T1, human MSLN-R3 protein
# Assay: ELISA on coated antigen, antibody 0.01 nM
row,Binder,OD450
1,B1,0.05 OD450
2,B2,0.04 OD450
3,B3,0.05 OD450
4,B4,0.04 OD450
5,B5,0.04 OD450
6,B6,0.05 OD450
7,B7,0.05 OD450
8,B8,0.04 OD450

# Target: T1, human MSLN-R3 protein
# Assay: ELISA on coated antigen, antibody 0.0001 nM
row,Binder,OD450
1,B1,0.05 OD450
2,B2,0.05 OD450
3,B3,0.05 OD450
4,B4,0.05 OD450
5,B5,0.05 OD450
6,B6,0.05 OD450
7,B7,0.05 OD450
8,B8,0.05 OD450

# Target: T1, human MSLN-R3 protein
# Assay: ELISA on coated antigen, antibody 1 nM
row,Binder,OD450
1,B1,0.45 OD450
2,B2,0.83 OD450
3,B3,1.1 OD450
4,B4,0.77 OD450
5,B5,0.76 OD450
6,B6,0.6 OD450
7,B7,1.18 OD450
8,B8,0.74 OD450
